Reference: US20230002493A1 (ORIONIS BIOSCIENCES, published 2023)
Residue numbers refer to the chain shown, from its start. Names and notes keep the numbering of the source.

B1: 2LIG189_D33E (VHH)
VHH: QVQLQESGGGLVQAGGSLRLSCAASGKIFSGNEMGWYRQAPGKQRELVGIITSGGITDYADAVKGRFTISRDNAKNMMYLQMNSLKPEDTAVYYCNMRDRTIWWGQGTQVTVSS
B2: 2LIG189_N32Y (VHH)
VHH: B1 VHH with N32Y, E33D
B3: 2LIG189_M97Y (VHH)
VHH: B1 VHH with E33D, M97Y
B4: 2LIG189_OPT4 (VHH)
VHH: B1 VHH with Q1D, Q5V, A14P, E33D, A74S, M77T, M78V, K86R, Q109L
B5: 2LIG189_D33L (VHH)
VHH: B1 VHH with E33L
B6: 2LIG189_D33F (VHH)
VHH: B1 VHH with E33F
B7: 2LIG189_N32I (VHH)
VHH: B1 VHH with N32I, E33D
B8: 2LIG189_N32L (VHH)
VHH: B1 VHH with N32L, E33D
B9: 2LIG189_N32V (VHH)
VHH: B1 VHH with N32V, E33D
B10: 2LIG189_N32S (VHH)
VHH: B1 VHH with N32S, E33D
B11: 2LIG189_N32F (VHH)
VHH: B1 VHH with N32F, E33D
B12: 2LIG189_D33Q (VHH)
VHH: B1 VHH with E33Q
B13: 2LIG189_OPT1 (VHH)
VHH: B1 VHH with Q1D, Q5V, A14P, E33D, A74S, K86R, Q109L
B14: 2LIG189_OPT2 (VHH)
VHH: B1 VHH with Q1D, Q5V, A14P, E33D, A74S, M77T, K86R, Q109L
B15: 2LIG189_M97F (VHH)
VHH: B1 VHH with E33D, M97F
B16: 2LIG189_N32H (VHH)
VHH: B1 VHH with N32H, E33D
B17: 2LIG189_N32E (VHH)
VHH: B1 VHH with N32E, E33D
B18: 2LIG189_N32T (VHH)
VHH: B1 VHH with N32T, E33D
B19: 2LIG189_D33Y (VHH)
VHH: B1 VHH with E33Y
B20: 2LIG189_N32G (VHH)
VHH: B1 VHH with N32G, E33D
B21: 2LIG189_OPT3 (VHH)
VHH: B1 VHH with Q1D, Q5V, A14P, E33D, A74S, M78V, K86R, Q109L
B22: 2LIG189_N32A (VHH)
VHH: B1 VHH with N32A, E33D
B23: 2LIG99 VHH (VHH)
VHH: QVQLQESGGGLVQAGGSLRLSCTASGTIFSINRMDWFRQAPGKQRELVALITSDGTPAYADSAKGRFTISRDNTKKTVSLQMNSLKPEDTAVYYCHVSSGVYNYWGQGTQVTVSS
notes: Parental PD-L1 VHH; stands here as the molecule on which the mutations are counted; also called wild-type 2LIG99; not shown: C-terminal His-tag
B24: P-2055: 2LIG99_OPT_D54G_K76N_S79Y (Q1D_Q5V_A14P_D54G_T74S_K76N_K86R_S79Y_Q110L) (VHH)
VHH: B23 VHH with Q1D, Q5V, A14P, D54G, T74S, K76N, S79Y, K86R, Q110L
notes: not shown: C-terminal His-tag ('produced as described above')
B25: 2LIG99_OPT_D54G (VHH)
VHH: B23 VHH with Q1D, Q5V, A14P, D54G, T74S, K86R, Q110L
B26: P-2052: 2LIG99_OPT_D54G_S79Y (Q1D_Q5V_A14P_D54G_T74S_S79Y_K86R_Q110L) (VHH)
VHH: B23 VHH with Q1D, Q5V, A14P, D54G, T74S, S79Y, K86R, Q110L
notes: as for B24
B27: P-2053: 2LIG99_OPT_D54G_A63V_K76N (Q1D_Q5V_A14P_D54G_A63V_T74S_K76N_K86R_Q110L) (VHH)
VHH: B23 VHH with Q1D, Q5V, A14P, D54G, A63V, T74S, K76N, K86R, Q110L
notes: as for B24
B28: P-2054: 2LIG99_OPT_D54G_A63V_S79Y (Q1D_Q5V_A14P_D54G_A63V_T74S_K86R_S97Y_Q110L) (VHH)
VHH: B23 VHH with Q1D, Q5V, A14P, D54G, A63V, T74S, S79Y, K86R, Q110L
notes: The mutation list prints S97Y where the name prints S79Y; not shown: C-terminal His-tag ('produced as described above')
B29: 2LIG99_OPT_D54G_A63V (VHH)
VHH: B23 VHH with Q1D, Q5V, A14P, D54G, A63V, T74S, K86R, Q110L
B30: P-2051: 2LIG99_OPT_D54G_K76N (Q1D_Q5V_A14P_D54G_T74S_K76N_K86R_Q110L) (VHH)
VHH: B23 VHH with Q1D, Q5V, A14P, D54G, T74S, K76N, K86R, Q110L
notes: as for B24
B31: P-2056: 2LIG99_OPT_D54G_A63V_K76N_S79Y (Q1D_Q5V_A14P_D54G_A63V_T74S_K76N_K86R_S79Y_Q110L) (VHH)
VHH: B23 VHH with Q1D, Q5V, A14P, D54G, A63V, T74S, K76N, S79Y, K86R, Q110L
notes: as for B24
B32: 2LIG189_M97Q (VHH)
VHH: B1 VHH with E33D, M97Q
B33: 2LIG189_D33V (VHH)
VHH: B1 VHH with E33V
B34: 2LIG189_M97R (VHH)
VHH: B1 VHH with E33D, M97R
B35: 2LIG189_D33R (VHH)
VHH: B1 VHH with E33R
B36: 2LIG189_M97H (VHH)
VHH: B1 VHH with E33D, M97H
B37: 2LIG189_D33I (VHH)
VHH: B1 VHH with E33I
B38: 2LIG189_M97E (VHH)
VHH: B1 VHH with E33D, M97E

target: T1, recombinant PD-L1 extracellular domain fused to the mouse IgG1 Fc domain (SinoBiologicals) (human; mouse, UniProt Q9NZQ7 19-238); test: BLI (Octet Red 96); ratio of the printed KDs, variant over 2LIG189
T1 construct: extracellular domain; also called human PD-L1-mouse Fc; PD-L1-mouse Fc protein; not shown: mouse IgG1 Fc domain
Method: (§1) Affinities of resulting variants were measured using the bio-layer interferometry technology on an Octet Red 96 instrument (ForteBio). In brief, recombinant PD-L1 extracellular domain fused to the mouse IgG1 Fc domain (SinoBiologicals) was immobilized on anti-murine IgG quantitation (AMQ) biosensors (ForteBio). Loaded sensors were incubated with a serial dilution of PD-L1 VHH variant, association and dissociation monitored and kinetic parameters were calculated using the Octet Data Analysis software v10 (ForteBio).
(§2) The aspartic acid at position 1 was included to avoid the risk of pyroglutamate formation. […] Resulting mutants were purified and affinities measured as described in Example 1.

T1 sequence (Q9NZQ7 19-238): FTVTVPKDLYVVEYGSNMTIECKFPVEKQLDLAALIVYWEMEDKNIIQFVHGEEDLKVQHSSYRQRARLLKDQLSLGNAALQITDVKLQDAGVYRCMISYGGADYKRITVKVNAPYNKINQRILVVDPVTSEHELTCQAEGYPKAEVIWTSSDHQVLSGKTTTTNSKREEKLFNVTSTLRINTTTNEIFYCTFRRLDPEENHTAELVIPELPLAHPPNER

Binder	Ratio KD
B1	52.1
B2	2.58
B3	6.09
B4	2.19
B5	20.7
B6	12.4
B7	8.23
B8	2.04
B9	3.82
B10	2.27
B11	0.7
B12	31.6
B13	8.75
B14	1.62
B15	1.9
B16	2.28
B17	0.68
B18	7.97
B19	2.82
B20	24
B21	6.18
B22	3.41

target: T1, recombinant PD-L1 extracellular domain …; test: BLI (Octet), recombinant PD-L1-mouse Fc on the sensor, VHH dilution series
Method: as §1
The isomerization motif in all these variants was removed by the D54G mutation. Variants were produced as described above and affinity measured on an Octet instrument using the recombinant PD-L1-mouse Fc protein.

Binder	Kd	koff	kon
B23	0.719 nM	0.000721 s⁻¹	1e+06 M⁻¹ s⁻¹
B24	0.0445 nM	5.52e-05 s⁻¹	1.24e+06 M⁻¹ s⁻¹
B25	0.553 nM	0.000856 s⁻¹	1.55e+06 M⁻¹ s⁻¹
B26	0.182 nM	0.000279 s⁻¹	1.54e+06 M⁻¹ s⁻¹
B27	0.602 nM	0.00112 s⁻¹	1.87e+06 M⁻¹ s⁻¹
B28	0.427 nM	0.000779 s⁻¹	1.83e+06 M⁻¹ s⁻¹
B29	1.16 nM	0.00151 s⁻¹	1.3e+06 M⁻¹ s⁻¹
B30	0.358 nM	0.000599 s⁻¹	1.67e+06 M⁻¹ s⁻¹
B31	0.735 nM	0.000677 s⁻¹	921000 M⁻¹ s⁻¹

target: T1, recombinant PD-L1 extracellular domain …; test: BLI (Octet Red 96), PD-L1-mouse IgG1 Fc on AMQ biosensors, VHH dilution series
Method: as §1

Binder	Kd	koff	kon
B23	0.282 nM	0.000447 s⁻¹	1.58e+06 M⁻¹ s⁻¹

target: T1, recombinant PD-L1 extracellular domain …; test: as above; remark: another data set of the same source
Method: as §1, §2

Binder	Kd	koff	kon	binding result
B1	41.2 nM	0.00883 s⁻¹	214000 M⁻¹ s⁻¹	
B32				no binding
B33				no binding
B2	2.04 nM	0.000629 s⁻¹	308000 M⁻¹ s⁻¹	
B3	4.82 nM	0.00146 s⁻¹	303000 M⁻¹ s⁻¹	
B4	1.74 nM	0.000301 s⁻¹	174000 M⁻¹ s⁻¹	
B5	16.4 nM	0.0342 s⁻¹	2.08e+06 M⁻¹ s⁻¹	
B6	9.78 nM	0.0107 s⁻¹	1.09e+06 M⁻¹ s⁻¹	
B7	6.51 nM	0.000872 s⁻¹	134000 M⁻¹ s⁻¹	
B8	1.62 nM	0.000195 s⁻¹	121000 M⁻¹ s⁻¹	
B9	3.02 nM	0.0009 s⁻¹	298000 M⁻¹ s⁻¹	
B34				no binding
B35				no binding
B10	1.8 nM	0.000292 s⁻¹	163000 M⁻¹ s⁻¹	
B11	0.55 nM	0.000176 s⁻¹	320000 M⁻¹ s⁻¹	
B12	25 nM	0.0118 s⁻¹	474000 M⁻¹ s⁻¹	
B13	6.92 nM	0.000497 s⁻¹	71800 M⁻¹ s⁻¹	
B14	1.28 nM	0.000299 s⁻¹	234000 M⁻¹ s⁻¹	
B15	1.51 nM	0.000208 s⁻¹	138000 M⁻¹ s⁻¹	
B16	1.81 nM	0.000446 s⁻¹	247000 M⁻¹ s⁻¹	
B36				no binding
B17	0.542 nM	9.85e-05 s⁻¹	182000 M⁻¹ s⁻¹	
B37				no binding
B18	6.31 nM	0.00104 s⁻¹	164000 M⁻¹ s⁻¹	
B38				no binding
B19	2.23 nM	0.00835 s⁻¹	3.75e+06 M⁻¹ s⁻¹	
B20	19 nM	0.00228 s⁻¹	120000 M⁻¹ s⁻¹	
B21	4.89 nM	0.000942 s⁻¹	193000 M⁻¹ s⁻¹	
B22	2.7 nM	0.000733 s⁻¹	272000 M⁻¹ s⁻¹	
